Data from patent publication US20150233949.

Assays:
[1] = biological target: mouse cytochrome c with a C-terminal Flag tag
mouse cytochrome c with a C-terminal Flag tag, sequence (chain, as listed by the source): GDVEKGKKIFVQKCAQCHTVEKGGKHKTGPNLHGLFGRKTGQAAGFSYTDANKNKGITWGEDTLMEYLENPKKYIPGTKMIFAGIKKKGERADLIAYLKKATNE

B1: human SIRT3-HA (protein)
chain: MAFWGWRAAAALRLWGRVVERVEAGGGVGPFQACGCRLVLGGRDDVSAGLRGSHGARGEPLDPARPLQRPPRPEVPRAFRRQPRAAAPSFFFSSIKGGRRSISFSVGASSVVGSGGSSDKGKLSLQDVAELIRARACQRVVVMVGAGISTPSGIPDFRSPGSGLYSNLQQYDLPYPEAIFELPFFFHNPKPFFTLAKELYPGNYKPNVTHYFLRLLHDKGLLLRLYTQNIDGLERVSGIPASKLVEAHGTFASATCTVCQRPFPGEDIRADVMADRVPRCPVCTGVVKPDIVFFGEPLPQRFLLHVVDFPMADLLLILGTSLEVEPFASLTEAVRSSVPRLLINRDLVGPLAWHPRSRDVAQLGDVVHGVESLVELLGWTEEMRDLVQRETGKLDGPDK
[1]
  acetylation of residues K40 and K74 of cytochrome c (mass spectrometry): when hSIRT3 was cotransfected with cytochrome c, acetylation of residues K40 and K74 of cytochrome c was no longer detected

B2: SIRT3 (protein)
chain: B1 chain
Endogenous cytochrome c
  deacetylation assay (Western blot): SIRT3 can deacetylate endogenous cytochrome c
